Assay results from patent US20090324614A1.

Experiments:
[1] = molecular target: rat FcRn/rat β2M expressed on cells (rat) (UniProt P13599); test: FACS blocking of IgG-Fc, IgG, pH 6
[2] = molecular target: soluble human FcRn (shFcRn) (human) (UniProt P55899); test: Biacore, IgG immobilized, hFcRn flowed, pH 7.4
soluble human FcRn (shFcRn) (human), sequence (P55899 24-297 limits assumed, chain 1 of 2): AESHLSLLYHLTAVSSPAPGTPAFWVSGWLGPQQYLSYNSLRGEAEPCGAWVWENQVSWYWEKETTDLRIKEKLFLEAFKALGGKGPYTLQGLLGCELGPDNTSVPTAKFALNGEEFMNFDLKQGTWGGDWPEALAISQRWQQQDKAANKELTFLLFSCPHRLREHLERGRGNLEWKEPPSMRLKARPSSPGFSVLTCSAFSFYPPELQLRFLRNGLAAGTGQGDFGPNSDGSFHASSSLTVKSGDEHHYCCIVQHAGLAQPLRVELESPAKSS
soluble human FcRn (shFcRn) (human), sequence (b2m, as listed by the source limits assumed, chain 2 of 2): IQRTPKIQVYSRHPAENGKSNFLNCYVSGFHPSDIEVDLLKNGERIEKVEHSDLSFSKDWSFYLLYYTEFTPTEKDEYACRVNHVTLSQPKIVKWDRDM

rat FcRn/rat β2M expressed on cells (rat), sequence (P13599 23-366 limits assumed, chain 1 of 2): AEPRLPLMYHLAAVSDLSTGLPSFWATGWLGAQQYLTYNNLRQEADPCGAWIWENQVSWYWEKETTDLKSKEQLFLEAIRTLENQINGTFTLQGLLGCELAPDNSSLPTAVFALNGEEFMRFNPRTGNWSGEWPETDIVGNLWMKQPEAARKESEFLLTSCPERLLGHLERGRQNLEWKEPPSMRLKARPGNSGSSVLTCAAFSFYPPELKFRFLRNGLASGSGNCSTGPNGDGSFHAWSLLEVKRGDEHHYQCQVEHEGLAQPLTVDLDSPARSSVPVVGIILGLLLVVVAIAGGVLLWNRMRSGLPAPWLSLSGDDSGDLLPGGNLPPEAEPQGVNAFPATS
rat FcRn/rat β2M expressed on cells (rat), sequence (b2m, as listed by the source limits assumed, chain 2 of 2): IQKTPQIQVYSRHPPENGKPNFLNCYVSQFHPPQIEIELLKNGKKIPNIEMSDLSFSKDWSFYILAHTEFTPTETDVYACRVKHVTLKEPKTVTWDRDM

Substance	IC50 [1] [nM]	Kd [2] [nM]
1G3 mouse anti-rat FcRn IgG (antibody)	1.5	
M161-B04 IgG (DX-2504) (antibody)		7.06
